Publication PMC7988490, “Molecular insights into replication initiation in a multipartite genome harboring bacterium Deinococcus radiodurans” (The Journal of Biological Chemistry, 2020)
One block for each molecule: values may come before it.

Assays:
[1] = target: T1, drDnaB (DnaB) (Deinococcus radiodurans R1 (ATCC13939)) (UniProt Q9RWW6); assay: EMSA; details: nonspecific, EMSA: 50 mM Tris-HCl pH 8.0, 75 mM KCl, 5 mM MgSO4, 0.1 mM DTT, ~30 nM 32P-DNA, 37 C 15 min
T1 sequence: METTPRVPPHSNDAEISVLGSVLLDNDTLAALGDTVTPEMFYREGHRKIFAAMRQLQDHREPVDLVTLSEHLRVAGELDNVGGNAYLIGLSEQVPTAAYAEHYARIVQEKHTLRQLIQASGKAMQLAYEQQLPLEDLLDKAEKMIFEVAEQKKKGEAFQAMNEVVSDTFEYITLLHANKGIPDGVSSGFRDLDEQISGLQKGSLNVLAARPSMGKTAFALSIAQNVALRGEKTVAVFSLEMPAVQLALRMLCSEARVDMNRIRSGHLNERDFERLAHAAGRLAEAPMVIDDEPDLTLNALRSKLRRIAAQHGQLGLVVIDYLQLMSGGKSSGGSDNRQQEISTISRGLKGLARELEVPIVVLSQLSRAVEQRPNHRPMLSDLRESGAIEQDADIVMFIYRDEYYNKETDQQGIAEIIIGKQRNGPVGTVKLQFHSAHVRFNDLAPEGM

drDnaB (DnaB) [2] = target: T2, drDnaB (DnaB) (Deinococcus radiodurans R1 (ATCC13939), UniProt Q9RWW6 1-448); assay: EMSA; no ATP; EMSA: 50 mM Tris-HCl pH 8.0, 75 mM KCl, 5 mM MgSO4, 0.1 mM DTT, +/- 1 mM ATP, ~30 nM 32P-DNA, 37 C 15 min; details: protein: recombinant; tags: N-terminal 6xHis (pET28a); chain copies: 6; label: 32P 5' end
T2 sequence: T1 sequence

drDnaB (DnaB) [3] = target: T2, drDnaB (DnaB); assay: EMSA; 1 mM ATP; EMSA: 50 mM Tris-HCl pH 8.0, 75 mM KCl, 5 mM MgSO4, 0.1 mM DTT, +/- 1 mM ATP, ~30 nM 32P-DNA, 37 C 15 min; details: protein: recombinant; tags: N-terminal 6xHis (pET28a); chain copies: 6; label: 32P 5' end
drDnaB (DnaB) [4] = target: T2, drDnaB (DnaB); assay: EMSA; ATPgS; EMSA: 50 mM Tris-HCl pH 8.0, 75 mM KCl, 5 mM MgSO4, 0.1 mM DTT, +/- 1 mM ATP, ~30 nM 32P-DNA, 37 C 15 min; details: protein: recombinant; tags: N-terminal 6xHis (pET28a); chain copies: 6; label: 32P 5' end
[5] = target: T3, recombinant drDnaB, purified (D. radiodurans, UniProt Q9RWW6 1-448); assay: SPR; 20 μM PprA immobilised on a bare gold sensor chip by EDC-NHS at 20 °C (~200 response units); 4–20 μM drDnaA or drDnaB incubated with 1 mM ATP and 1 mM MgCl2 in the mobile phase; 20 mM Tris pH 7.6; Autolab Esprit; details: both partners purified
T3 construct: DnaB of Deinococcus radiodurans, DR_0549; the drdnaB gene was PCR amplified from genomic DNA of D. radiodurans R1 and cloned in pET28a(+) at BamHI and EcoRI
T3 sequence (looked up): T1 sequence

[6] = target: T4, recombinant drDnaA, purified (D. radiodurans, UniProt Q9RYE7 1-466); assay: as above; details: both partners purified
T4 construct: DnaA of Deinococcus radiodurans, DR_0002
T4 sequence (looked up): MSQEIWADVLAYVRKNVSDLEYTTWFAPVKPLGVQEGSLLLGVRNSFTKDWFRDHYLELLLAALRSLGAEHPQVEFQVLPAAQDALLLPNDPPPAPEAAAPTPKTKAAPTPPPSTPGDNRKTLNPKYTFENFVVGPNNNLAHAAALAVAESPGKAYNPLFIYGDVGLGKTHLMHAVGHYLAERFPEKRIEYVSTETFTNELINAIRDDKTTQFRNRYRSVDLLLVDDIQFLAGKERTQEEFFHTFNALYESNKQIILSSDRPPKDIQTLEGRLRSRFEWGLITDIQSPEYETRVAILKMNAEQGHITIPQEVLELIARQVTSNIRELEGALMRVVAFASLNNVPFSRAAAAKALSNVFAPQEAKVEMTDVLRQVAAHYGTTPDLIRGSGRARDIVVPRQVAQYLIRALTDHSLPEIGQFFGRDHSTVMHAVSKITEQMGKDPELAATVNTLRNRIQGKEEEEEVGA

Molecule: oriCI 500 bp (13 DnaA boxes)
- Kd ([1]; 1 mM ATP): 8.23 µM
- Kd ([1]; no ATP, +/- 1 mM ATP): 8.89 µM

Molecule: GGAATTCCAATGAACCGCAAAACCGCAAAAACCGTACCGA (ssDNA) [ssDNA oligo 99F (40 nt)]
- Kd (drDnaB (DnaB) [2]): 3.11 ± 0.11 µM
- Kd (drDnaB (DnaB) [3]): 1420 ± 50 nM
- Kd (drDnaB (DnaB) [4]): 1020 ± 60 nM

- Kd [5]: 971 nM
- Kd [6]: 541 nM
B1: recombinant PprA (histidine-tagged PprA, His-PprA), purified (natural protein, D. radiodurans, UniProt O32504 1-300, looked up)
chain: MLPLAFLICSGHNKGSMARAKAKDQTDGIYAAFDTLMSTAGVDSQIAALAASEADAGTLDAALTQSLQEAQGRWGLGLHHLRHEARLTDDGDIEILTDGRPSARVSEGFGALAQAYAPMQALDERGLSQWAALGEGYRAPGDLPLAQLKVLIEHARDFETDWSAGRGETFQRVWRKGDTLFVEVARPASAEAALSDAAWDVIASIKDRAFQRELMRRSEKDGMLGALLGARHAGAKANLAQLPEAHFTVQAFVQTLSGAAARNAEEYRAALKTAAAALEEYQGVTTRQLSEVLRHGLRES
